The results in this text go back to patent US20180179283A1.

Assay [1] has as its target HLA-A2 positive, antigen negative cells. The assay is described as follows: FACS, SKMEL-5 cells (melanoma, WT1 mRNA -). (A flow cytometer gives signals particle by particle.)
The target in assay [2] is Unloaded T2 (human). The assay is described as follows: FACS, unloaded T2 cells, anti-human PE.
For assay [3], the target named is HLA-A2/WT1 126-134 peptide complex on cells (human). The assay is described as follows: FACS, SET-2 cells (essential thrombocythemia, WT1 mRNA +).
Assay [4] concerns the target HLA-A2/WT1-S11 peptide on T2 cells (human). The assay is described as follows: FACS, T2 cells loaded with WT1-S11 [..] (heteroclitic pep.), anti-human PE.
The target in assay [5] is HLA-A2/WT1 126-134 peptide complex on cells (human). The assay can be described thus: FACS, T2 cells loaded with WT1 1x10e-4M in DMSO, anti-human PE.
Assay [6] has as its target HLA-A2/MAGE-A9 223-231 peptide complex on cells (human). The assay is described as follows: FACS, T2 cells loaded with MAGE-A9 [..], anti-human PE.
For assay [7], the target named is HLA-A2/WT1 126-134 peptide complex on cells (human). The assay is described as follows: FACS, T2 cells loaded with 10^-4M WT1 peptide.
In assay [8] the target is HLA-A2 positive, antigen negative cells. The assay can be described thus: FACS, A498 cells (printed: non-small cell lung adenocarcinoma, WT1 mRNA -).
The target in assay [9] is HLA-A2/WT1-S22 peptide on T2 cells (human). The assay is described as follows: FACS, T2 cells loaded with WT1-S22 [..], anti-human PE.
Assay [10] addresses HLA-A2 positive, antigen negative cells. The assay is described as follows: FACS, 501A cells (melanoma, WT1 mRNA -).
The target in assay [11] is HLA-A2/WT1-S13 peptide on T2 cells (human). The assay is described as follows: FACS, T2 cells loaded with WT1-S13 [..], anti-human PE.
For assay [12], the target named is HLA-A2 positive, antigen negative cells. The assay is described as follows: FACS, U266 cells (multiple myeloma, WT1 mRNA -).
Assay [13] has the same target. The assay can be described thus: FACS, JVM-2 cells (lymphoblast, WT1 mRNA -).
Assay [14] addresses HLA-A2/WT1 126-134 peptide complex on cells (human). The assay can be described thus: FACS, T2 cells loaded with WT1 peptide 1x10e-5M, anti-human PE.
The target in assay [15] is HLA-A2 positive, antigen negative cells. The assay is described as follows: FACS, IM-9 cells (multiple myeloma, WT1 mRNA -).
Assay [16] deals with HLA-A2/WT1-S6 peptide on T2 cells (human). The assay is described as follows: FACS, T2 cells loaded with WT1-S6 [..], anti-human PE.
In assay [17] the target is HLA-A2/PAP 112-120 peptide complex on cells (human). The assay can be described thus: FACS, T2 cells loaded with PAP112, anti-human PE.
For assay [18], the target named is HLA-A2/WT1 126-134 peptide complex on cells (human). The assay can be described thus: FACS, BV173 cells (B cell precursor leukemia, WT1 mRNA +).
The target is the same in assay [19]. The assay is described as follows: FACS, T2 cells loaded with WT1 peptide 1x10e-4M, anti-human PE.
Assay [20] addresses HLA-A2/WT1-S7 peptide on T2 cells (human). The assay is described as follows: FACS, T2 cells loaded with WT1-S7 [..], anti-human PE.
The target in assay [21] is HLA-A2/WT1-S16 peptide on T2 cells (human). The assay is described as follows: FACS, T2 cells loaded with WT1-S16 [..], anti-human PE.
For assay [22], the target named is HLA-A2/Tyrosinase 369-377 peptide complex on cells (human). The assay is described as follows: FACS, T2 cells loaded with TyrD [..], anti-human PE.
The target in assay [23] is HLA-A2/WT1-S10 peptide on T2 cells (human). The assay is described as follows: FACS, T2 cells loaded with WT1-S10 [..], anti-human PE.
For assay [24], the target named is HLA-A2/MAGE-A4 230-239 peptide complex on cells (human). The assay is described as follows: FACS, T2 cells loaded with MAGE-A4 [..], anti-human PE.

ESK1 TCR-like antibody: the MFI in [1] is 4.3; in [2], 1; in [3] it was 26.3; in assay [4] it was 1.1; in assay [5] it was 17.9; in [6], 1. In addition, the MFI in assay [7] turned out to be 18; in [8], 5.2; in assay [9], 1.1; in assay [10], 10.7; in assay [11] it was 1.1; in [12], 1.9. Besides, the MFI in assay [13] was determined as 1; in [14], 1.6; in [15], 1.2; in assay [16] it was 5; in assay [17], 1.1; in assay [18], 8.1. Also, the MFI in assay [19] is 17.9; in assay [20], 3.1; in [21] it was 1.1; in assay [22], 1; in assay [23] it was 1.4; in assay [24], 1.1.
